# Test results: paper PMC9957003, “Functional Analyses of Rare Germline Missense BRCA1 Variants Located within and outside Protein Domains with Known Functions” (Genes, 2023)
# Where a chain is given by its changes, count along the chain named.
# B1: BRCA1 p.Arg504Cys (full-length, mCherry-tagged) (natural protein, human, UniProt P38398 1-1863, looked up)
# chain: MDLSALRVEEVQNVINAMQKILECPICLELIKEPVSTKCDHIFCKFCMLKLLNQKKGPSQCPLCKNDITKRSLQESTRFSQLVEELLKIICAFQLDTGLEYANSYNFAKKENNSPEHLKDEVSIIQSMGYRNRAKRLLQSEPENPSLQETSLSVQLSNLGTVRTLRTKQRIQPQKTSVYIELGSDSSEDTVNKATYCSVGDQELLQITPQGTRDEISLDSAKKAACEFSETDVTNTEHHQPSNNDLNTTEKRAAERHPEKYQGSSVSNLHVEPCGTNTHASSLQHENSSLLLTKDRMNVEKAEFCNKSKQPGLARSQHNRWAGSKETCNDRRTPSTEKKVDLNADPLCERKEWNKQKLPCSENPRDTEDVPWITLNSSIQKVNEWFSRSDELLGSDDSHDGESESNAKVADVLDVLNEVDEYSGSSEKIDLLASDPHEALICKSERVHSKSVESNIEDKIFGKTYRKKASLPNLSHVTENLIIGAFVTEPQIIQERPLTNKLKCKRRPTSGLHPEDFIKKADLAVQKTPEMINQGTNQTEQNGQVMNITNSGHENKTKGDSIQNEKNPNPIESLEKESAFKTKAEPISSSISNMELELNIHNSKAPKKNRLRRKSSTRHIHALELVVSRNLSPPNCTELQIDSCSSSEEIKKKKYNQMPVRHSRNLQLMEGKEPATGAKKSNKPNEQTSKRHDSDTFPELKLTNAPGSFTKCSNTSELKEFVNPSLPREEKEEKLETVKVSNNAEDPKDLMLSGERVLQTERSVESSSISLVPGTDYGTQESISLLEVSTLGKAKTEPNKCVSQCAAFENPKGLIHGCSKDNRNDTEGFKYPLGHEVNHSRETSIEMEESELDAQYLQNTFKVSKRQSFAPFSNPGNAEEECATFSAHSGSLKKQSPKVTFECEQKEENQGKNESNIKPVQTVNITAGFPVVGQKDKPVDNAKCSIKGGSRFCLSSQFRGNETGLITPNKHGLLQNPYRIPPLFPIKSFVKTKCKKNLLEENFEEHSMSPEREMGNENIPSTVSTISRNNIRENVFKEASSSNINEVGSSTNEVGSSINEIGSSDENIQAELGRNRGPKLNAMLRLGVLQPEVYKQSLPGSNCKHPEIKKQEYEEVVQTVNTDFSPYLISDNLEQPMGSSHASQVCSETPDDLLDDGEIKEDTSFAENDIKESSAVFSKSVQKGELSRSPSPFTHTHLAQGYRRGAKKLESSEENLSSEDEELPCFQHLLFGKVNNIPSQSTRHSTVATECLSKNTEENLLSLKNSLNDCSNQVILAKASQEHHLSEETKCSASLFSSQCSELEDLTANTNTQDPFLIGSSKQMRHQSESQGVGLSDKELVSDDEERGTGLEENNQEEQSMDSNLGEAASGCESETSVSEDCSGLSSQSDILTTQQRDTMQHNLIKLQQEMAELEAVLEQHGSQPSNSYPSIISDSSALEDLRNPEQSTSEKAVLTSQKSSEYPISQNPEGLSADKFEVSADSSTSKNKEPGVERSSPSKCPSLDDRWYMHSCSGSLQNRNYPSQEELIKVVDVEEQQLEESGPHDLTETSYLPRQDLEGTPYLESGISLFSDDPESDPSEDRAPESARVGNIPSSTSALKVPQLKVAESAQSPAAAHTTDTAGYNAMEESVSREKPELTASTERVNKRMSMVVSGLTPEEFMLVYKFARKHHITLTNLITEETTHVVMKTDAEFVCERTLKYFLGIAGGKWVVSYFWVTQSIKERKMLNEHDFEVRGDVVNGRNHQGPKRARESQDRKIFRGLEICCYGPFTNMPTDQLEWMVQLCGASVVKELSSFTLGTGVHPIVVVQPDAWTEDNGFHAIGQMCEAPVVTREWVLDSVALYQCQELDTYLIPQIPHSHY
# notes: BRCA1, human, full-length, rare germline missense variant introduced in the WT plasmid; Made by site-directed mutagenesis of the plasmid of m1; also called c.1510C > T; source: HEK293FT, transiently co-transfected, in lysate
# B2: BRCA1 p.Arg612Gly (full-length, mCherry-tagged) (natural protein, human, UniProt P38398 1-1863, looked up)
# chain: B1 chain with C504R, R612G
# notes: BRCA1, human, full-length, rare germline missense variant introduced in the WT plasmid; Made by site-directed mutagenesis of the plasmid of m1; also called c.1834A > G; source: HEK293FT, transiently co-transfected, in lysate
# B3: BRCA1 p.Thr1256Ile (full-length, mCherry-tagged) (natural protein, human, UniProt P38398 1-1863, looked up)
# chain: B1 chain with C504R, T1256I
# notes: BRCA1, human, full-length, rare germline missense variant introduced in the WT plasmid; Made by site-directed mutagenesis of the plasmid of m1; also called c.3767C > T; source: HEK293FT, transiently co-transfected, in lysate
# B4: BRCA1 p.Val1378Ile (full-length, mCherry-tagged; benign control variant, coiled-coil domain) (natural protein, human, UniProt P38398 1-1863, looked up)
# chain: B1 chain with C504R, V1378I
# notes: BRCA1, human, full-length, benign control missense variant in the coiled-coil domain, introduced in the WT plasmid; Made by site-directed mutagenesis of the plasmid of m1; also called c.4132G > A; source: HEK293FT, transiently co-transfected, in lysate
# B5: BRCA1 p.Glu575Lys (full-length, mCherry-tagged) (natural protein, human, UniProt P38398 1-1863, looked up)
# chain: B1 chain with C504R, E575K
# notes: BRCA1, human, full-length, rare germline missense variant introduced in the WT plasmid; Made by site-directed mutagenesis of the plasmid of m1; also called c.1723G > A; source: HEK293FT, transiently co-transfected, in lysate
# B6: BRCA1 p.Arg610Thr (full-length, mCherry-tagged) (natural protein, human, UniProt P38398 1-1863, looked up)
# chain: B1 chain with C504R, R610T
# notes: BRCA1, human, full-length, rare germline missense variant introduced in the WT plasmid; Made by site-directed mutagenesis of the plasmid of m1; also called c.1829G > C; source: HEK293FT, transiently co-transfected, in lysate
# Biological target: T1, Flag-PALB2 WT (Partner and Localiser of BRCA2) (UniProt Q86YC2 1-1186)
# T1 construct: PALB2 (Partner and Localiser of BRCA2), wild type; printed both as Flag-PALB2 and as PALB2-Flag; also called PALB2-Flag; pDEST-FRT/T0-Flag-PALB2; source: HEK293FT, transiently co-transfected, in lysate
# T1 sequence (looked up): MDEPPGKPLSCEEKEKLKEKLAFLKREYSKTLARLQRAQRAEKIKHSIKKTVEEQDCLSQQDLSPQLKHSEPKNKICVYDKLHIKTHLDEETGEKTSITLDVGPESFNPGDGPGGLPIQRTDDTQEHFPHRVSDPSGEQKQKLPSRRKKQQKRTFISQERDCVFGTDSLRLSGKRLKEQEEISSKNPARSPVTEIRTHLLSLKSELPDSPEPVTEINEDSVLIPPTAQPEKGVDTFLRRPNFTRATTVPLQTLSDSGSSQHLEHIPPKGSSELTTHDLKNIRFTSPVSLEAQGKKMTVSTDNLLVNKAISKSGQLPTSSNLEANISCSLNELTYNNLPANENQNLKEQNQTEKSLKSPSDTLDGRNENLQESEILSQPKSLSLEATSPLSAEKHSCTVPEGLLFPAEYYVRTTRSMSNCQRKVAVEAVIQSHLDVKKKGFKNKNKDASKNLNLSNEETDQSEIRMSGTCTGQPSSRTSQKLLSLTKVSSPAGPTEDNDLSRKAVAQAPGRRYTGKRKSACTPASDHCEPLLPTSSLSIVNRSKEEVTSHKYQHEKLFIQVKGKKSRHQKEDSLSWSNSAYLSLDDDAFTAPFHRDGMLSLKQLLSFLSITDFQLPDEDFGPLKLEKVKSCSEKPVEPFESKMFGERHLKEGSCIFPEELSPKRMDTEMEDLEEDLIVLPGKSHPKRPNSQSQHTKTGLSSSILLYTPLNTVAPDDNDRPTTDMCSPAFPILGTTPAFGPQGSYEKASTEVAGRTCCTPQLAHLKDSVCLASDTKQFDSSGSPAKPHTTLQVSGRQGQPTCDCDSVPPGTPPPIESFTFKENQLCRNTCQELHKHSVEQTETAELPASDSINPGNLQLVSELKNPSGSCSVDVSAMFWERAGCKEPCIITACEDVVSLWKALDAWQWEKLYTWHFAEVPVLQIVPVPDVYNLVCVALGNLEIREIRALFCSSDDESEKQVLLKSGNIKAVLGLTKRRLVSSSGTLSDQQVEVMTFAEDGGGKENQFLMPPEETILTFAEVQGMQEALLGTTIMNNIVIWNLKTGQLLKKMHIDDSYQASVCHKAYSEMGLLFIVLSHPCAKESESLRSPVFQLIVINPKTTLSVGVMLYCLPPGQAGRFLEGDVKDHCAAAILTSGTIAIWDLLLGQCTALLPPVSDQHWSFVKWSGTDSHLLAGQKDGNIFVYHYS
# Experiment: co-IP; HEK293FT co-transfected with BRCA1 WT or variant and Flag-PALB2; 2 mg lysate protein incubated 90 min at 4 °C with Flag antibody coupled to Dynabeads Protein G; non-denaturing elution; BRCA1 in the IP detected by anti-BRCA1 blot, normalised to the anti-Flag signal, % of WT
# Conditions: partners not purified
row,Binder,Co-IP PALB2 (% of WT)
1,B1,65 % of WT
2,B2,59 % of WT
3,B3,79 % of WT
4,B4,72 % of WT
5,B5,66 % of WT
6,B6,56 % of WT

# Biological target: T2, BARD1-V5 WT (BRCA1-Associated RING Domain protein 1) (UniProt Q99728 1-777)
# T2 construct: BARD1 (BRCA1-Associated RING Domain protein 1), wild type; also called pcDNA6.2-BARD1-V5; source: HEK293FT, transiently co-transfected, in lysate
# T2 sequence (looked up): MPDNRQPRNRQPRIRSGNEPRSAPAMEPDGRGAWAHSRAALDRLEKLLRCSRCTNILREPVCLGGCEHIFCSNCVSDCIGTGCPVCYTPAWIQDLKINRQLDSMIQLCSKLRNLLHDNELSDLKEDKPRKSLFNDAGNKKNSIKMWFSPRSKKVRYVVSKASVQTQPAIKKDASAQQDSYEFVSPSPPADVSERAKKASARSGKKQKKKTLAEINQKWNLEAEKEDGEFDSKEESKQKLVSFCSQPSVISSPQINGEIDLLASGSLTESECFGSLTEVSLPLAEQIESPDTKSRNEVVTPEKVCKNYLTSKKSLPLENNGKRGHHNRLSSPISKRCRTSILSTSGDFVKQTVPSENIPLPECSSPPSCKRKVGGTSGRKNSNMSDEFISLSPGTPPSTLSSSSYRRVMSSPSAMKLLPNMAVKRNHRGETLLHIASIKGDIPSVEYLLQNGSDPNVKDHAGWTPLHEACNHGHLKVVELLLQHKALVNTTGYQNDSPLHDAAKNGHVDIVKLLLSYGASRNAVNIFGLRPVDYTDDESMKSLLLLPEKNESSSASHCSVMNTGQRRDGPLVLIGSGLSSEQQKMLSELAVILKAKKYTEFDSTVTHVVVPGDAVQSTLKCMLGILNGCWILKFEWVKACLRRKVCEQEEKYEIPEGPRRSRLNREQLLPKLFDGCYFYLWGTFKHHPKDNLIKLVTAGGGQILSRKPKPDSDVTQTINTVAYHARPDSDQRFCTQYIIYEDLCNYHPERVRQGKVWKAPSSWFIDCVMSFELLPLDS
# Experiment: co-IP; HEK293FT co-transfected with BRCA1 WT or variant and BARD1-V5; 2 mg lysate protein incubated 90 min at 4 °C with V5 antibody coupled to Dynabeads Protein G; non-denaturing elution; BRCA1 in the IP detected by anti-BRCA1 blot, normalised to the anti-V5 signal, % of WT
# Conditions: partners not purified
row,Binder,Co-IP BARD1 (% of WT)
1,B1,63 % of WT
2,B2,71 % of WT
3,B3,55 % of WT
4,B5,77 % of WT
5,B6,81 % of WT
